This series has as its target NF-Y (NF-YA confirmed by supershift) ((K562 cells)) (UniProt P23511). Description: EMSA.

Sequence of NF-Y (NF-YA confirmed by supershift) ((K562 cells)) (P23511 whole entry): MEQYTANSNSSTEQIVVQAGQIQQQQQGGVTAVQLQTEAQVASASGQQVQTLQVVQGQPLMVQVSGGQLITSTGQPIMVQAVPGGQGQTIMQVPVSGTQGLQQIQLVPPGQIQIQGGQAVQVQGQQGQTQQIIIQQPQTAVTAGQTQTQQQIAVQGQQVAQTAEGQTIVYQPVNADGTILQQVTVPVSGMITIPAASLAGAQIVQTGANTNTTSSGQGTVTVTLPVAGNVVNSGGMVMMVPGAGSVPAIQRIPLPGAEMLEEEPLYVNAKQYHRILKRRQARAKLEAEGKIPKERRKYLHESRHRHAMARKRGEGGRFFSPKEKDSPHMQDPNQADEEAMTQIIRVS

Turning to “AGCCTTGCCTTGACCAATAGCCTTGACAA (double strand) [HBG distal CCAAT box WT]”, the binding signal (fold of WT band intensity (reference)) stood at 1. In the case of “AGCCTTGCCTTGACCAATCGCCTTGACAA (double strand) [HBG distal CCAAT box -110 A>C]”, the binding signal (fold of WT band intensity) was 1.5.

For the origin of these results see PMC8610173.
